Measured values reported in patent US20160067674A1, “LIGANDS AND METHODS FOR ISOLATING OR REMOVING PROTEINS” (PreviPharma AG, priority 2014, published 2016).
Starred links: 1 amine or outer side, 2 acyl side, 3 side chain; linkers in the order of their positions; H or OH if unused. No end group written: not given here. *: point of attachment. code X = linker with the sequence GSGSGSG, O=C(CNC(=O)[C@H](CO)NC(=O)CN[*:1])N[C@@H](CO)C(=O)NCC(=O)N[C@@H](CO)C(=O)NCC(=O)[*:2]; Biotin = O=C1N[C@H]2[C@H](CS[C@H]2CCCCC(=O)*)N1

Key:
factor VIII = factor VIII (Homo sapiens, UniProt P00451); assay: Peptide array of Protein C sequence for peptides binding to factor VIII
Source text: (§1) In this manner, the sequences of Protein A, Protein G, Protein H and FcRn were investigated for peptides binding to IgG. In addition, the sequence of Protein C was investigated for peptides binding to factor V and factor VIII.

IgG = IgG binding to and release from peptide-modified streptavidin latex particles, bound and eluted IgG analysed by ELISA
Description: Subsequently, it was evaluated whether IgG can be bound to and released from the thus prepared modified latex. For this purpose, 10 mg of the modified latex particles were mixed with 400 μl of an IgG solution containing 0.22 mg/ml IgG. After allowing the mixture to react at room temperature for one hour, the supernatant solution was removed from the latex beads and the beads were washed to remove any non-bound IgG. The beads were then evaluated for bound IgG.
In the next step, the beads were added to 400 μl of an elution buffer (25 mM acetate buffer at pH 3.0) and shaken for one hour at room temperature. The supernatant was then removed from the beads and the beads were cleaned by washing. Both the bound and eluted IgG was an analysed by an ELISA assay.

factor V = factor V (Homo sapiens, UniProt P12259); assay: Peptide array of Protein C sequence for peptides binding to factor V
Source text: as §1

factor V or factor VIII = assay: Peptide array of Protein C sequence, binding affinity towards factor V or factor VIII; conditions: compared with sequences i) to iii)
Source text: as §1

Sequence of factor VIII (P00451 20-2351, species assumed): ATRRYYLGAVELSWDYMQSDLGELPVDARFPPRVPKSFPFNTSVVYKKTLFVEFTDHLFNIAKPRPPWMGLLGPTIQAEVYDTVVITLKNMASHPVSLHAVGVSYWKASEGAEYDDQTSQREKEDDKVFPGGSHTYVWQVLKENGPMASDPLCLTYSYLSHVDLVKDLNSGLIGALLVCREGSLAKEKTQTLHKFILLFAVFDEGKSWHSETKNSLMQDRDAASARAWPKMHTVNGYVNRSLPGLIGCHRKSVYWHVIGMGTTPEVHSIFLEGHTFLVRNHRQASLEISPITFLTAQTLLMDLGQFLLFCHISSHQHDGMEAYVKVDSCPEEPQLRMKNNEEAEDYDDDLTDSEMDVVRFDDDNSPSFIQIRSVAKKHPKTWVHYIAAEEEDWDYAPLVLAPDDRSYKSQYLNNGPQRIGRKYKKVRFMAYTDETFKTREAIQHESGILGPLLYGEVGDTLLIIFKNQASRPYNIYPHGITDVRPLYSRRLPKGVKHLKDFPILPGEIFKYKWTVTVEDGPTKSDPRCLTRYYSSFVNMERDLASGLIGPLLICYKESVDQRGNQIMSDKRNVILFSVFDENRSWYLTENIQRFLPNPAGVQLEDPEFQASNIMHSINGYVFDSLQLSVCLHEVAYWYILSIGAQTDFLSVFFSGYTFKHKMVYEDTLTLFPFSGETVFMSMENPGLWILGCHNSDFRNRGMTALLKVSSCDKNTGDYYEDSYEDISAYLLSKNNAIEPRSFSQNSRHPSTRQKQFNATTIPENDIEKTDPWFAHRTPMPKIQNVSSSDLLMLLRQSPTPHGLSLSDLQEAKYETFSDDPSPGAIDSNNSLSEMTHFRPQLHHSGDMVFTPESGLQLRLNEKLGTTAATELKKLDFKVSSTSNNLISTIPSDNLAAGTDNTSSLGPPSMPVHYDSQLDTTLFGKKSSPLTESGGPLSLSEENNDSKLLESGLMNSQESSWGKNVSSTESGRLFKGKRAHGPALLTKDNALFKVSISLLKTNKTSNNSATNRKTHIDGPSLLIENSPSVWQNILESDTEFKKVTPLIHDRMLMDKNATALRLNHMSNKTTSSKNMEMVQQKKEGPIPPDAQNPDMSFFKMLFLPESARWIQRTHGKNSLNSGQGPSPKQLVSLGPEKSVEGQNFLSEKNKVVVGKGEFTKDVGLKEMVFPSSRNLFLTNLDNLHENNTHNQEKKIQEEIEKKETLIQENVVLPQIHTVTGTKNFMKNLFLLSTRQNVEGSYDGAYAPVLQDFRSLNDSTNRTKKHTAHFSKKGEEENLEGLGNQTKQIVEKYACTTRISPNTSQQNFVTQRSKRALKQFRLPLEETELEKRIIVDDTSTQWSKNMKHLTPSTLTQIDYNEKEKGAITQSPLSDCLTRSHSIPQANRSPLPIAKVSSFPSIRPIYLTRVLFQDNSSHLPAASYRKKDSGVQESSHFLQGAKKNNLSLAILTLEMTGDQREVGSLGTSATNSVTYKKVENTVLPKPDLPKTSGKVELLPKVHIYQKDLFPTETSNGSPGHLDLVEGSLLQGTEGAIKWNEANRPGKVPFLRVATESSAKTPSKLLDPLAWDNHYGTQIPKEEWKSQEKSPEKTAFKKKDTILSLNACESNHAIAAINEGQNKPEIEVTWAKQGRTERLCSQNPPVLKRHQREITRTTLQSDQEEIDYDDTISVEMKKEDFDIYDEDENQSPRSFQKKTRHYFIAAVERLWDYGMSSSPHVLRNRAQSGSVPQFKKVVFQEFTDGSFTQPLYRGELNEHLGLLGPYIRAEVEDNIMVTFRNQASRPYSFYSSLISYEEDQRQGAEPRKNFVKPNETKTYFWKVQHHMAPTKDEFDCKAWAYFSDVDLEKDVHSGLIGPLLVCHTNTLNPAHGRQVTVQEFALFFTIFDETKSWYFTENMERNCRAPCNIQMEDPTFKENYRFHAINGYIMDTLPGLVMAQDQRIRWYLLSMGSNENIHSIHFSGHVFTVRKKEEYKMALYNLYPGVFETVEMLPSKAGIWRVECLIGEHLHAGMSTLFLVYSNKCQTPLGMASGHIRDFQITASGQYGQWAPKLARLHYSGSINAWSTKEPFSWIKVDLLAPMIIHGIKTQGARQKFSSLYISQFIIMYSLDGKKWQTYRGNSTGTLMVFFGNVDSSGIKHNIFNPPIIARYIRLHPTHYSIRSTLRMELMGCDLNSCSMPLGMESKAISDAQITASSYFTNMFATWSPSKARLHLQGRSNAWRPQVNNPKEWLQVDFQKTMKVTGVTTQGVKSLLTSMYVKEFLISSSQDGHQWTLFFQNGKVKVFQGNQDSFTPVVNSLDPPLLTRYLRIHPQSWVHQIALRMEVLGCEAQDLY
Sequence of factor V (P12259 29-2224): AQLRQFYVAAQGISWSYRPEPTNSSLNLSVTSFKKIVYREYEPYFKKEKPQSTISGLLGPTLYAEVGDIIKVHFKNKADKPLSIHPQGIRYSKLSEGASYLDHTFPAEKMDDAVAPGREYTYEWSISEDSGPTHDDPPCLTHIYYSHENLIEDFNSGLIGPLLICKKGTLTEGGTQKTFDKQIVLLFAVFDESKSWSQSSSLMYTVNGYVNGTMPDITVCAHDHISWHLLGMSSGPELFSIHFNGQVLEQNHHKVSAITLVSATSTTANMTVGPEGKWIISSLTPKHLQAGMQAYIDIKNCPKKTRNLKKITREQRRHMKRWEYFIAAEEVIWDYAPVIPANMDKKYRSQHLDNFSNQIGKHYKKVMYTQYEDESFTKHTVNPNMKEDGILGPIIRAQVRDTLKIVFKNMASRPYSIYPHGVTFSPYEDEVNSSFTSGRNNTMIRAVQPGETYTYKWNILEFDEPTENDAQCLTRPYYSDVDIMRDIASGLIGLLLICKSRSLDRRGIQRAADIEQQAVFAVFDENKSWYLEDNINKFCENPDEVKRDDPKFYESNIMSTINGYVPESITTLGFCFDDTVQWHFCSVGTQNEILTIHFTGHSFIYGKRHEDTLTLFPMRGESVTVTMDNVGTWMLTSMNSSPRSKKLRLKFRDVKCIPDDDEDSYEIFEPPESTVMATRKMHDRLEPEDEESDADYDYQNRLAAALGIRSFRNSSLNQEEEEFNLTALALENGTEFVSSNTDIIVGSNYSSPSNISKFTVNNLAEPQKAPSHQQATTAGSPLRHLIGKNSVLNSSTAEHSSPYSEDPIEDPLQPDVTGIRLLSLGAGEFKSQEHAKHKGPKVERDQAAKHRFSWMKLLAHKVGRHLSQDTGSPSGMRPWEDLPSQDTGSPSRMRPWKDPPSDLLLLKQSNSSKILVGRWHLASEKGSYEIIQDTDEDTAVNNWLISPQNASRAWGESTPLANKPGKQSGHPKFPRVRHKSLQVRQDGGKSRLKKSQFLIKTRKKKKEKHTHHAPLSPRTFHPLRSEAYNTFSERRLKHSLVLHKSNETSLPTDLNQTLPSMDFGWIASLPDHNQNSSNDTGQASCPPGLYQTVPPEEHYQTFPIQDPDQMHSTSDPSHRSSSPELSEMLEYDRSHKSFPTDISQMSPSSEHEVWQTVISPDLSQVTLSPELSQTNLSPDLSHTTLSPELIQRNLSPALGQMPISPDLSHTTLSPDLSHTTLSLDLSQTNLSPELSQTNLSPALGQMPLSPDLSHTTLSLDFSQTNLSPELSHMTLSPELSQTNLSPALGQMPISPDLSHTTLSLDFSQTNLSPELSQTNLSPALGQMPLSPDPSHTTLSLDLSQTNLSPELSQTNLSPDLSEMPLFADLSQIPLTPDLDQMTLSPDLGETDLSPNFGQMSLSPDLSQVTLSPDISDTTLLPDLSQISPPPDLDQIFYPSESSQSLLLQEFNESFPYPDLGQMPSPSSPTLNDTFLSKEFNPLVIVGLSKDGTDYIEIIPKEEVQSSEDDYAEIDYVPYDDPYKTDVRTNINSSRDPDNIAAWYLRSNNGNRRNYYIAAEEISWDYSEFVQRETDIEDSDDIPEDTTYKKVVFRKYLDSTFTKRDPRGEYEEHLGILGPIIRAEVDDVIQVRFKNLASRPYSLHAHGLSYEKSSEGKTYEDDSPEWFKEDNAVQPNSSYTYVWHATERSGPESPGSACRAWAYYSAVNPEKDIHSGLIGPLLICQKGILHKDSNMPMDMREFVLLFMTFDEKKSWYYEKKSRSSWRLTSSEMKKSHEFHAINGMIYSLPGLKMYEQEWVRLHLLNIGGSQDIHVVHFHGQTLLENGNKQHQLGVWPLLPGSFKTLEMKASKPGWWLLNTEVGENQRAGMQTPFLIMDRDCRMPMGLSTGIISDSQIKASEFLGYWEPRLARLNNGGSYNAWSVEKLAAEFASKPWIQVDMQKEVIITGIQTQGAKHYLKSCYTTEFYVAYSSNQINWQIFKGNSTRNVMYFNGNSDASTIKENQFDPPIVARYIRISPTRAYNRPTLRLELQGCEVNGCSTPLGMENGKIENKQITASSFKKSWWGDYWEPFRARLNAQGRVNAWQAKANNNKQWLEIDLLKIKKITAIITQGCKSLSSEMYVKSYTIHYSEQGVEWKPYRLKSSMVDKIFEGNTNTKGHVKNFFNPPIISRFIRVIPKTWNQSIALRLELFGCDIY

Row | Substance | binding to factor VIII (factor VIII) | binding to factor V (factor V) | binding affinity towards factor V or factor VIII (factor V or factor VIII) | further results
1 | HNYGVYTKVSRYL | not significantly binding |  |  | 
2 | bio-X-QQQLITIKQISEASRKSLSRD ({Biotin-code X}-QQQLITIKQISEASRKSLSRD) [Peptide 2, biotin-labelled peptide; bio = biotin, X = linker GSGSGSG] |  |  |  | IgG bound (IgG; 10 mg peptide-modified latex, 400 μl of 0.22 mg/ml IgG, 1 h room temperature): 55 µg; IgG Elution (IgG; 400 μl 25 mM acetate buffer pH 3.0, 1 h room temperature): 52 µg; Recovery [IgG] (IgG; eluted relative to bound IgG): 95%
3 | GDSGGPMVASFHG |  | not significantly bind |  | selectivity for factor VIII (factor VIII; versus factor V): high selectivity
4 | LEGYDLRRWEKWE | binds equally strong | binds equally strong |  | 
5 | TGWGYHSSREKEA [v)] |  |  | weaker | 
6 | FVHPNYSKSTTDNDIALLH [iv)] |  |  | weaker | 
